For one molecule, apparent dissociation rate constant (before subtracting GTP hydrolysis), koff and kon results are on record in paper PMC6309729.

Where two headings read alike, the source gives them in different places.

Holding throughout (assay): other fluorescence titration
Experiment [1] concerns the target acrylodan-labeled cpSRP54(234C, A142W) (Arabidopsis thaliana).
Experiment [2] has as its target cpSRP54(234C)-acrylodan (Arabidopsis thaliana) (UniProt P37107).
Experiment [3] has the same target. This is another data set of the same source.

As usually defined, the koff is the first-order rate constant of dissociation. A lower koff goes with slow dissociation. What is called kon is a measure of how fast the partners come together. A low value points to slower complex formation.

B1: cpFtsY (chloroplast SRP receptor), wildtype (natural protein)
chain: CSAGPSGFFTRLGRLIKEKAKSDVEKVFSGFSKTRENLAVIDELLLFWNLAETDRVLDELEEALLVSDFGPKITVRIVERLREDIMSGKLKSGSEIKDALKESVLEMLAKKNSKTELQLGFRKPAVIMIVGVNGGGKTTSLGKLAHRLKNEGTKVLMAAGDTFRAAASDQLEIWAERTGCEIVVAEGDKAKAATVLSKAVKRGKEEGYDVVLCDTSGRLHTNYSLMEELIACKKAVGKIVSGAPNEILLVLDGNTGLNMLPQAREFNEVVGITGLILTKLDGSARGGCVVSVVEELGIPVKFIGVGEAVEDLQPFDPEAFVNAIFS
For the molecule B1, the apparent dissociation rate constant (before subtracting GTP hydrolysis) in experiment [1] was found to be 0.038 s⁻¹. Besides, in experiment [1], the koff amounted to 0.03 s⁻¹. In addition, the kon in experiment [1] came out at 190000 M⁻¹ s⁻¹; in experiment [2] it was 230000 M⁻¹ s⁻¹; in experiment [3], 157000 M⁻¹ s⁻¹.
